# Experimental data taken from patent US12076374B1, “Anti-microbial and anti-inflammatory compositions and methods for treating enteric diseases in animals” (Vets Plus, Inc., priority 2019, dated 2024).
# B1: ovotransferrin (protein, UniProt P02789 20-705, looked up)
# Ovotransferrin: APPKSVIRWCTISSPEEKKCNNLRDLTQQERISLTCVQKATYLDCIKAIANNEADAISLDGGQAFEAGLAPYKLKPIAAEVYEHTEGSTTSYYAVAVVKKGTEFTVNDLQGKTSCHTGLGRSAGWNIPIGTLLHRGAIEWEGIESGSVEQAVAKFFSASCVPGATIEQKLCRQCKGDPKTKCARNAPYSGYSGAFHCLKDGKGDVAFVKHTTVNENAPDQKDEYELLCLDGSRQPVDNYKTCNWARVAAHAVVARDDNKVEDIWSFLSKAQSDFGVDTKSDFHLFGPPGKKDPVLKDLLFKDSAIMLKRVPSLMDSQLYLGFEYYSAIQSMRKDQLTPSPRENRIQWCAVGKDEKSKCDRWSVVSNGDVECTVVDETKDCIIKIMKGEADAVALDGGLVYTAGVCGLVPVMAERYDDESQCSKTDERPASYFAVAVARKDSNVNWNNLKGKKSCHTAVGRTAGWVIPMGLIHNRTGTCNFDEYFSEGCAPGSPPNSRLCQLCQGSGGIPPEKCVASSHEKYFGYTGALRCLVEKGDVAFIQHSTVEENTGGKNKADWAKNLQMDDFELLCTDGRRANVMDYRECNLAEVPTHAVVVRPEKANKIRDLLERQEKRFGVNGSEKSKFMMFESQNKDLLFKDLTKCLFKVREGTTYKEFLGDKFYTVISSLKTCNPSDILQMCSFLEGK
# Key:
# Assay type in all cases: in vivo
# PEDV = PEDV newborn piglets, dose response of ovotransferrin drench with or without ORS; settings: for % Survival: 100 ml drench twice daily, after 5 days
# [1] = 28-d feeding trial in weaned pigs with diarrhea, fecal score and growth performance
# Experimental: Weaning can be a stressful time for performance animals that are transitioning to new food and newly encountering enteric pathogens. These factors can result in diarrhea to varying degrees. The objective of this study was to evaluate the effect of supplementing dietary ovotransferrin of the invention to pigs that had slight diarrhea within a week upon weaning. Growth performance and fecal score were measured. […] Pigs with diarrhea were housed in the nursery pens with 3 pigs per pen and allowed free access to the diet and water ad-libitum for the entire experimental period. Then, they were treated with a solution mixed with electrolytes and ovotransferrin by drenching for 3 days. Ovotransferrin was produced as described in example 1. The pigs were fed test diets containing 0, 0.5, and 1.0% ovotransferrin of the invention. Body weight were recorded at day 0 (study initiation), day 7, 14, 21, and 28 postweaning. Average daily gain (ADG), average daily feed intake (ADFI) and gain:feed (G:F) ratio were calculated weekly from day 7-28 postweaning. Corn-soybean meal-based diets were used for 28 days with 2 phases (Phase 1: day 0-14 postweaning and Phase 2: day 15-28 postweaning). Ovotransferrin was added to the diets by replacing corn starch proportionally. Fecal score was recorded daily through day 14. Body weight and feed consumption were recorded weekly for the diarrhea pigs.
# gut microbiome = assay: Fecal 16S rRNA microbiome analysis of newly weaned piglets with diarrhea
# Text: The microbiome of newly weaned piglets with diarrhea was examined when treated with components of the invention. Fecal samples of N=3 control (C) newly weaned piglets without diarrhea (D) and for N=6 newly weaned piglets that did have diarrhea were examined. 3 of these piglets with diarrhea were randomly selected and treated (T3) with 2.5 grams/piglet/day with ovotransferrin by mixing the ovotransferrin into dry feed for 5 consecutive days. Fecal samples were taken from the Diarrhea pigs, the Treated piglets and Control piglets after 5 days trial.
# Fecal samples then had DNA was extracted using the PowerSoil DNA extraction kit (QIAGEN). Extracted DNA was then sequenced where the V4 variable region of the bacterial 16S rRNA gene was amplified (Primers 515F and 806R) and libraries constructed using a dual index approach1. 16SrRNA libraries were sequenced on a MiSeq V3 instrument (Illumina), targeting 2×300 PE reads. Bioinformatics occurred by processing of amplicons that was based on protocols that rely on several open-source software (FastQC2, cutadapt3, bbmap4 and the DADA25 plugin within QIIME26) to remove adaptors and primer sequences, merge PE reads, filter out low quality reads and generate counts of unique Amplicon Sequence Variants (ASVs) or unique taxonomic groups that represent the abundance of species and/or strains in each sample. […]
# Eimeria tenella = assay: E. tenella infection (coccidiosis) in broiler chickens, growth performance and oocysts
# [2] = 0.5% ovotransferrin in diet, d 7-14
# [3] = 0.5% ovotransferrin in diet, d 7-28
# [4] = 0.5% ovotransferrin in diet, d 14-21
# [5] = 0.5% ovotransferrin in diet, d 21-28
# [6] = 1% ovotransferrin in diet, d 7-14
# [7] = 1% ovotransferrin in diet, d 7-28
# [8] = 1% ovotransferrin in diet, d 14-21
# [9] = 1% ovotransferrin in diet, d 21-28
molecule,measurement,setting,value
B1,% Survival,PEDV; 2 grams of ovotransferrin in water,40%
same,Defecations/day/group,"PEDV; 2 grams of ovotransferrin, Day 0",30 Defecations/day/group
same,Defecations/day/group,"PEDV; 2 grams of ovotransferrin, Day 1",18 Defecations/day/group
same,Defecations/day/group,"PEDV; 2 grams of ovotransferrin, Day 3",14 Defecations/day/group
same,Defecations/day/group,"PEDV; 2 grams of ovotransferrin, Day 5",12 Defecations/day/group
same,% Survival,PEDV; 5 grams of ovotransferrin in water,60%
same,Defecations/day/group,"PEDV; 5 grams of ovotransferrin, Day 0",26 Defecations/day/group
same,Defecations/day/group,"PEDV; 5 grams of ovotransferrin, Day 1",18 Defecations/day/group
same,Defecations/day/group,"PEDV; 5 grams of ovotransferrin, Day 3",15 Defecations/day/group
same,Defecations/day/group,"PEDV; 5 grams of ovotransferrin, Day 5",12 Defecations/day/group
same,Fecal score,"[1]; 0.5% ovotransferrin in diet, d 0-7, scale ≤1 normal to 4 liquid, severe diarrhea",1.81
same,Fecal score,"[1]; 0.5% ovotransferrin in diet, d 0-14 (Phase 1), scale ≤1 normal to 4 severe diarrhea",1.80
same,Fecal score,"[1]; 0.5% ovotransferrin in diet, d 0-28 (Overall), scale ≤1 normal to 4 severe diarrhea",1.68
same,ADFI (average daily feed intake),[1]; [2],581.17 g/day
same,ADG (average daily gain),[1]; [2],356.06 g/day
same,G:F (gain:feed ratio),[1]; [2],0.613
same,Fecal score,"[1]; 0.5% ovotransferrin in diet, d 7-14, scale ≤1 normal to 4 severe diarrhea",1.79
same,ADFI (average daily feed intake),[1]; [3],868.33 g/day
same,ADG (average daily gain),[1]; [3],540.76 g/day
same,G:F (gain:feed ratio),[1]; [3],0.623
same,Body weight,"[1]; 0.5% ovotransferrin in diet, d 7 postweaning",7.87 kg
same,Body weight,"[1]; 0.5% ovotransferrin in diet, d 14",10.37 kg
same,ADFI (average daily feed intake),[1]; [4],933.98 g/day
same,ADG (average daily gain),[1]; [4],566.02 g/day
same,G:F (gain:feed ratio),[1]; [4],0.606
same,Body weight,"[1]; 0.5% ovotransferrin in diet, d 21",14.33 kg
same,ADFI (average daily feed intake),[1]; [5],1089.83 g/day
same,ADG (average daily gain),[1]; [5],700.22 g/day
same,G:F (gain:feed ratio),[1]; [5],0.643
same,Body weight,"[1]; 0.5% ovotransferrin in diet, d 28",19.23 kg
same,Fecal score,"[1]; 1% ovotransferrin in diet, d 0-7, scale ≤1 normal to 4 severe diarrhea",1.57
same,Fecal score,"[1]; 1% ovotransferrin in diet, d 0-14 (Phase 1), scale ≤1 normal to 4 severe diarrhea",1.61
same,Fecal score,"[1]; 1% ovotransferrin in diet, d 0-28 (Overall), scale ≤1 normal to 4 severe diarrhea",1.58
same,Body weight,"[1]; 1% ovotransferrin in diet, d 7",7.61 kg
same,ADFI (average daily feed intake),[1]; [6],654.76 g/day
same,ADG (average daily gain),[1]; [6],496.75 g/day
same,G:F (gain:feed ratio),[1]; [6],0.759
same,Fecal score,"[1]; 1% ovotransferrin in diet, d 7-14, scale ≤1 normal to 4 severe diarrhea",1.64
same,ADFI (average daily feed intake),[1]; [7],1043.29 g/day
same,ADG (average daily gain),[1]; [7],645.02 g/day
same,G:F (gain:feed ratio),[1]; [7],0.618
same,Body weight,"[1]; 1% ovotransferrin in diet, d 14",11.09 kg
same,ADFI (average daily feed intake),[1]; [8],1084.42 g/day
same,ADG (average daily gain),[1]; [8],584.42 g/day
same,G:F (gain:feed ratio),[1]; [8],0.539
same,Body weight,"[1]; 1% ovotransferrin in diet, d 21",15.18 kg
same,ADFI (average daily feed intake),[1]; [9],1390.69 g/day
same,ADG (average daily gain),[1]; [9],853.90 g/day
same,G:F (gain:feed ratio),[1]; [9],0.614
same,Body weight,"[1]; 1% ovotransferrin in diet, d 28",21.16 kg
same,"Microbiome diversity (Shannon index, Bray-Curtis PCoA)","gut microbiome; 2.5 grams/piglet/day in dry feed for 5 consecutive days, fecal samples",brought the microbiome diversity back to levels similar to the control piglets
same,"Abundance of Veilloneaceae, Entreobacteriaceae, Paraprevotellaceae and Treponema","gut microbiome; 2.5 grams/piglet/day in dry feed for 5 days, indicator species analysis",Reductions to the initial control baselines
same,Weight (g) in chickens infected with E. tenella,"Eimeria tenella; 0.5% ovotransferrin in feed day 7 through 21, Day 7",110 ± 5 g
same,Weight (g) in chickens infected with E. tenella,"Eimeria tenella; 0.5% ovotransferrin in feed, Day 14 (day of infection)",283 ± 10 g
same,Weight (g) in chickens infected with E. tenella,"Eimeria tenella; 0.5% ovotransferrin in feed, Day 21",470 ± 15 g
same,Weight (g) in chickens infected with E. tenella,"Eimeria tenella; 1.0% ovotransferrin in feed, Day 7",115 ± 6 g
same,Weight (g) in chickens infected with E. tenella,"Eimeria tenella; 1.0% ovotransferrin in feed, Day 14",293 ± 14 g
same,Weight (g) in chickens infected with E. tenella,"Eimeria tenella; 1.0% ovotransferrin in feed, Day 21",529 ± 22 g
same,Weight (g) in chickens infected with E. tenella,"Eimeria tenella; 2.0% ovotransferrin in feed, Day 7",115 ± 6 g
same,Weight (g) in chickens infected with E. tenella,"Eimeria tenella; 2.0% ovotransferrin in feed, Day 14",293 ± 14 g
same,Weight (g) in chickens infected with E. tenella,"Eimeria tenella; 2.0% ovotransferrin in feed, Day 21",571 ± 15 g
same,Oocysts count in fecal sample,"Eimeria tenella; as compared with positive infected control, *p<0.01",significantly lower
same,Histopathology of cecum,"Eimeria tenella; cecum samples at end of experiment, versus positive infected control",normal structures of cecal epithelium
same,E. tenella infection,Eimeria tenella; given alone in feed,inhibited E. tenella infection
same,Feed conversion rate,"Eimeria tenella; treated groups, E. tenella infected broiler chickens",higher
